Experimental data as given in US20220332804A1 (CSL INNOVATION, published 2022).
Substitutions are numbered along the chain they refer to.

Tests used:
human complement C2 [1] = target: T1, human complement C2 (human, UniProt P06681 21-752); experiment: SPR, mAb captured, huC2 analyte, pH 6, steady state
T1 construct: Recombinant full-length human C2 with C-terminal 8x His tag, purified from Expi293F supernatant; also called human C2; huC2
T1 sequence: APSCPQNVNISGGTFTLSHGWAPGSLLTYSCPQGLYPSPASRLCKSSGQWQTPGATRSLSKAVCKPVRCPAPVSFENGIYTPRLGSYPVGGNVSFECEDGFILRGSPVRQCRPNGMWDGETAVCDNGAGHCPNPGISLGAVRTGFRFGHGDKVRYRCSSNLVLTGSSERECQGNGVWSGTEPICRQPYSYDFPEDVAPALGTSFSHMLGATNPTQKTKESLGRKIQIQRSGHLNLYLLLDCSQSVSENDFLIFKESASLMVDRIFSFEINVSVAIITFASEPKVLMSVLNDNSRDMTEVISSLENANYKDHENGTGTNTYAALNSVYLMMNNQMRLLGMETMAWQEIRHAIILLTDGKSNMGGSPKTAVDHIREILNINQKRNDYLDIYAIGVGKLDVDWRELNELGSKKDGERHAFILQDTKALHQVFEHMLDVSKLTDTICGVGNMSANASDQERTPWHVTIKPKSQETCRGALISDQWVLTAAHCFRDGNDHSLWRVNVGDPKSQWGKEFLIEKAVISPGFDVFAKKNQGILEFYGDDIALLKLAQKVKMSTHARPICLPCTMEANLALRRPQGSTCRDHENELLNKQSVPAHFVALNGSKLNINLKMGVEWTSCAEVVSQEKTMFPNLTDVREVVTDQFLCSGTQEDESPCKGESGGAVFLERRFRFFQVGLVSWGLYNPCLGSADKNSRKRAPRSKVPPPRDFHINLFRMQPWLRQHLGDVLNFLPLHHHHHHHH

human complement C2 [2] = target: T1, human complement C2; experiment: cell-based or functional assay
human FcRn/β2m = target: T2, human FcRn/β2m (human, UniProt P55899 24-297; P61769 21-119); experiment: SPR, antibody immobilised, FcRn/β2m analyte, pH 6.0; pH 6.0
T2 construct: Soluble FcRn/β2m injected as analyte over immobilised antibody; also called neonatal Fc receptor
Experimental: Anti-C2 mAbs (1 μg/mL at pH 5) were immobilized on a carboxylmethyldextran (CM5) sensorchip surface using standard EDC/NHS chemistry. Human and Cyno FcRn/β2m (40 μM) were prepared in running buffer (10 mM HEPES, 150 mM NaCl, 10 mM MES adjusted to either pH 6 or pH 7.3) and injected on the immobilized anti-C2 surface at concentrations ranging from 0.078 to 40 μM, prepared in two-fold dilutions in running buffer. Association and dissociation phases were monitored for 180 and 600 seconds, respectively. […] Double referenced sensorgrams were fitted to either a 1:1 kinetic model (pH 6), including a term for mass transport limitation or to a 1:1 steady state model (pH 7.3) where responses at the end of the association phase were plotted against respective concentrations.
Binding to both human and cynomolgus monkey FcRn was tested using the SPR methods described above.

human C2 D431A = target: T3, human C2 D431A (human, UniProt P06681 21-752); experiment: SPR, KD relative to WT C2;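 also: biacore SPR at 37 °C, anti-C2 mAbs captured on anti-human IgG chips with alanine or serine point mutants of C2 as analyte, KD from 1:1 fit compared with wild-type C2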
T3 sequence: T1 sequence with D411A

human C2 H451A = target: T4, human C2 H451A (human, UniProt P06681 21-752); experiment: SPR, KD relative to WT C2;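 also: biacore SPR at 37 °C, anti-C2 mAbs captured on anti-human IgG chips with alanine or serine point mutants of C2 as analyte, KD from 1:1 fit compared with wild-type C2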
T4 sequence: T1 sequence with H431A

T2 sequence (P55899 24-297 limits assumed, chain 1 of 2): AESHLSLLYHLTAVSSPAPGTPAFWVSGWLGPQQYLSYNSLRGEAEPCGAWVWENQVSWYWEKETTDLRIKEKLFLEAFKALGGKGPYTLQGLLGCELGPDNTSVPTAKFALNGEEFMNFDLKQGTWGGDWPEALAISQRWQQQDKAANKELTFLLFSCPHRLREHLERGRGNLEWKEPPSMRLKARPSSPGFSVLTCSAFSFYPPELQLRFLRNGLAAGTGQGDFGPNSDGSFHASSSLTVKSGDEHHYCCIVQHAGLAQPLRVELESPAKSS
T2 sequence (P61769 21-119 limits assumed, chain 2 of 2): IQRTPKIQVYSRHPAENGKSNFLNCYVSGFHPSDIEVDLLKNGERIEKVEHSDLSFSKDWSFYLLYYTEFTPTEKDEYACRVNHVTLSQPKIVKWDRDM

B1: RF16-226 (antibody)
heavy: not shown
light: SYELTQPPSVSVSPGQTARITCSGDALTSKYVAWYQQKSGLAPLLVIYEDTRRPSGIPAKFSGSSSGSVATLTISGAHGDDEADYYCYSTDASGHQRVFGGGTKLTVLSQPKAAPSVTLFPPSSEELQANKATLVCLISDFYPGAVTVAWKADGSPVKAGVETTKPSKQSNNKYAASSYLSLTPEQWKSHRSYSCQVTHEGSTVEKTVAPTECS
For B1, the Kd (human complement C2 [1]) was roughly 95 nM and the “log IC50 for inhibition of C1s-mediated cleavage of C2 (C2a band on SDS-PAGE, C1s titrated)” value (human complement C2 [2]) was 50.3 nM.

B2: RF16-226 (antibody, human IgG4 S228P, lambda)
heavy: not shown
light: B1 light
notes: pH-dependent anti-C2 antibody from a phage display library; also called WT
In the case of B2, the Kd (human FcRn/β2m) is reported as 3.8 µM.

B3: RF16-242 (antibody, human IgG4 S228P, lambda, V domains shown)
VH: EVQLLQSGAEVKKPGESLKISCKGSGYSFTSYWIGWVRQMPGKGLEWMGIIYPGDSDTRYSPSFQGQVTISADKSISTAYLQWSSLKASDTAMYYCARRGHYGDYFDYWGQGTLVTVSS
VL: SYELTQPPSVSVSPGQTARITCSGDALPKKYAYWYHQKSGQAPVLVIYEDRRRPSEIPERFSGSSSGTMATLTITGAQVEDEGVYFCYSRDRAGNQRVFGGGTQLTVLG
notes: pH-dependent anti-C2 antibody from a phage display library
With B3 the Fold diff (human C2 D431A) was 3 fold and the Fold diff (human C2 H451A) was 3 fold.
